This passage reports Kd results from US20120121587A1 (Chugai, published 2012).

Numbering of substitutions follows the chain as printed.

What is called Kd is the equilibrium constant for the complex coming apart.

In this experiment the target is T1, Human recombinant AXL-FND1 (GST-FND1), from pET-41b(+) (human, UniProt P30530 225-331).
T1 construct: Expressed in E. coli, purified on Glutathione Sepharose; analyte in all Biacore measurements; GST put first by the usual layout of pET-41; not shown: GST-tag of vector pET-41b(+) (Novagen)
T1 sequence (looked up): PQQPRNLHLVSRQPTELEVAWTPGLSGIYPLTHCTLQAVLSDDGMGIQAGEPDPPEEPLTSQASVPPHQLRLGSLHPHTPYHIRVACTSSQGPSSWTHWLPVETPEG
Put plainly: SPR (Biacore T100): antibody captured on Protein A, GST-FND1 as analyte. The protocol: Kinetic analyses of antigen-antibody reactions of humanized AXL antibodies were carried out using Biacore T100 (BIACORE). rec-Protein A (Zymed) (hereinafter, Protein A) was immobilized onto a sensor chip, various antibodies were bound to it, then an antigen as the analyte was flushed to measure the antibody-antigen interaction. Human recombinant AXL-FND1 (prepared in 2-2; hereinafter referred to as GST-FND1) prepared at various concentrations was used as the antigen. From the sensorgrams obtained through the measurements, kinetic parameters, namely binding rate constant kₐ (1/Ms) and dissociation rate constant kd (1/s), were calculated, and Kd (M) was calculated based on these values. Biacore T100 Evaluation Software (BIACORE) was used to calculate each of the parameters.
The sensor chips were produced by immobilizing approximately 3000 RU of Protein A onto CM5 (BIACORE) by amine coupling. Using the produced sensor chip, kinetic analyses were carried out on the interaction between the Protein A-bound antibodies and GST-FND1. HBS-EP+ was used as the running buffer, and the flow rate was set to 30 μL/min. Each antibody was prepared at 1 μg/mL using the running buffer, and was subjected to binding with Protein A for two minutes. GST-FND1 as the analyte was prepared at 0.5 and 2.0 μg/mL using HBS-EP+. Measurements were carried out by first binding the various humanized AXL antibodies, chimeric AXL antibodies, or mouse AXL antibodies of interest to Protein A, then applying an analyte solution to them for a two-minute interaction, and then switching to HBS-EP+ (BIACORE) for a two-minute measurement of the dissociation phase. After completion of measurement of the dissociation phase, 30 μL of 10 mM glycine-HCl (pH 2.0) was used for washing to regenerate the sensor chip. Such binding, dissociation, and regeneration were defined as one cycle of analysis. All experiments were performed at 25° C.
Affinity evaluation of each of the variants by Biacore was carried out by the method of Example 2.

B1: H26/L10 (antibody, human IgG1, kappa)
heavy: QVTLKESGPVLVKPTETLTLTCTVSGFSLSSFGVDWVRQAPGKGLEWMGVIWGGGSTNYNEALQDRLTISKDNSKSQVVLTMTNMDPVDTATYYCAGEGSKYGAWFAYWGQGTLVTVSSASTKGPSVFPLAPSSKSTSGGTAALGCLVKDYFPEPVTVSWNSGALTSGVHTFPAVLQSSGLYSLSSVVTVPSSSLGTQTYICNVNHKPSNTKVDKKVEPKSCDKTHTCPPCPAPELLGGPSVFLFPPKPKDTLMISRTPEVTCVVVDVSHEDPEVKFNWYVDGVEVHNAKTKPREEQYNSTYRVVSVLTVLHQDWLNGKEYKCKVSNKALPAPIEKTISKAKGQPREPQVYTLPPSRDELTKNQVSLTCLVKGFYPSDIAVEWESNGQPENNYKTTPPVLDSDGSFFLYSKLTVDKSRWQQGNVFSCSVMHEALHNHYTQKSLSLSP
light: DVVMTQSPLSLPVTLGQPASISCRSSQNIVHTNGNTYLEWYQQKPGKAPELLIYKVSNRFSGVPDRFSGSGSGTDFTLKISRVEAEDVGVYYCFQGSHIPFTFGQGTKVEIERTVAAPSVFIFPPSDEQLKSGTASVVCLLNNFYPREAKVQWKVDNALQSGNSQESVTEQDSKDSTYSLSSTLTLSKADYEKHKVYACEVTHQGLSSPVTKSFNRGEC
As for B1, the Kd was found to be 2.38 nM.

B2: H31/L0 (antibody, human IgG1, kappa)
heavy: not shown
light: B1 light with V109L, E112K
As for B2, the Kd came out at 2.54 nM.

B3: H32/L12 (antibody, human IgG1, kappa)
heavy: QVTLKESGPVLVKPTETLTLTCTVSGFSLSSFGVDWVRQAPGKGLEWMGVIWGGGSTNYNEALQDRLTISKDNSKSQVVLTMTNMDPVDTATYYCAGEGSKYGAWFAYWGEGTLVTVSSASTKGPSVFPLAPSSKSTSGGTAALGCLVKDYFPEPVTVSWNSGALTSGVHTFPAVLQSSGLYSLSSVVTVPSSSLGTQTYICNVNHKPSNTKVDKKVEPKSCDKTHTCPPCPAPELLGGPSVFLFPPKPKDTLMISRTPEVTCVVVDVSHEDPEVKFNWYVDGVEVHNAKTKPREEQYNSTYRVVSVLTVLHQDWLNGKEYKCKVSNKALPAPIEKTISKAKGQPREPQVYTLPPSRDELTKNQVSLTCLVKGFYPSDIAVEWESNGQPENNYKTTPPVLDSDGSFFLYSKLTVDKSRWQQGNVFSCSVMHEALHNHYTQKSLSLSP
light: B1 light with R24Q, K47E
Take B3: the Kd was found to be 2.64 nM.

B4: H31/L10 (antibody, human IgG1, kappa)
heavy: not shown
light: B1 light
Turning to B4, the Kd worked out at 3.03 nM.

B5: H32/L10 (antibody, human IgG1, kappa)
heavy: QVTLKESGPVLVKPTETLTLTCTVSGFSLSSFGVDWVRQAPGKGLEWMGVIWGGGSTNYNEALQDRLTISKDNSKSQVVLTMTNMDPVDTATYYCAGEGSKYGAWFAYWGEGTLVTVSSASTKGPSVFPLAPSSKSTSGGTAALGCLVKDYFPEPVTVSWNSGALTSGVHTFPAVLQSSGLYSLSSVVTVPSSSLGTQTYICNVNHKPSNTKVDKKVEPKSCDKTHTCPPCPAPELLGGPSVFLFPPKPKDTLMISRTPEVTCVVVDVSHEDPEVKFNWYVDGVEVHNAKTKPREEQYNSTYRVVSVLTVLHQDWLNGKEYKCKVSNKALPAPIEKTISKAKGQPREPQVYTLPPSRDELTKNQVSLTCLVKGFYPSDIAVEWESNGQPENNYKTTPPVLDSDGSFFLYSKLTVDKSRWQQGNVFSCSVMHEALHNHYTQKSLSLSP
light: B1 light
For B5, the Kd turned out to be 2.8 nM.

B6: H32/L13 (antibody, human IgG1, kappa)
heavy: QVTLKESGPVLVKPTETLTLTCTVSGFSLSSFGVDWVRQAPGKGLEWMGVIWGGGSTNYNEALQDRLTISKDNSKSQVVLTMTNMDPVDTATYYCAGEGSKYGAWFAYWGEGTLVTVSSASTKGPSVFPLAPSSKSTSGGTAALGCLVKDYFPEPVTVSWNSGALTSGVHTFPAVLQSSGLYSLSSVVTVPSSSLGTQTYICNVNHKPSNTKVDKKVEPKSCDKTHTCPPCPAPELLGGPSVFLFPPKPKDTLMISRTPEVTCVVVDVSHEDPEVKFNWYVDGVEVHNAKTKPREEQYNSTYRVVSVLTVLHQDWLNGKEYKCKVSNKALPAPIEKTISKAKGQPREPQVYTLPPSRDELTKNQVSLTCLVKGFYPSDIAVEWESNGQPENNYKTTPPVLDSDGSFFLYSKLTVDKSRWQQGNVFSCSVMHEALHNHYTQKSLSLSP
light: B1 light with R24Q, K47Q
Take B6: the Kd is 2.74 nM.

B7: H31/L11 (antibody, human IgG1, kappa)
heavy: not shown
light: B1 light with R24Q
For the molecule B7, the Kd was 3.05 nM.

B8: H32/L11 (antibody, human IgG1, kappa)
heavy: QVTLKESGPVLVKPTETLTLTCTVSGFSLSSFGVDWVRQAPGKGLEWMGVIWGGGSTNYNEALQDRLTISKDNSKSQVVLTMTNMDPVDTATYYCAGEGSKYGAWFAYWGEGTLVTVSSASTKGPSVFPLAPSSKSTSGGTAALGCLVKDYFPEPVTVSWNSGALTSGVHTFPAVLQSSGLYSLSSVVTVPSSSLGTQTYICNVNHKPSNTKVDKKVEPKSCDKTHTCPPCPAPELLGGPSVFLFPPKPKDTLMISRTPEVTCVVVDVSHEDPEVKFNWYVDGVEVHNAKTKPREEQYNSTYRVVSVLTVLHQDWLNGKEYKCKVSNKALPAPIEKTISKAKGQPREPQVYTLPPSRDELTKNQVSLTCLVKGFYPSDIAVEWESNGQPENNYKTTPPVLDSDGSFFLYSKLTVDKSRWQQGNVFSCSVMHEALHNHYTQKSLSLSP
light: B1 light with R24Q
Turning to B8, the Kd amounted to 2.74 nM.

B9: H28/L0 (antibody, human IgG1, kappa, V domains shown)
VH: QVTLKESGPVLVKPTETLTLTCTVSGFSLSSFGVDWVRQAPGKGLEWMGVIWGGGSTNYNEELQDRLTISKDNSKSQVVLTMTNMDPVDTATYYCAGEGSKYGAWFAYWGQGTLVTVSS
VL: DVVMTQSPLSLPVTLGQPASISCRSSQNIVHTNGNTYLEWYQQKPGKAPELLIYKVSNRFSGVPDRFSGSGSGTDFTLKISRVEAEDVGVYYCFQGSHIPFTFGQGTKLEIKR
As for B9, the Kd is 2.94 nM.

B10: H32/L0 (antibody, human IgG1, kappa)
heavy: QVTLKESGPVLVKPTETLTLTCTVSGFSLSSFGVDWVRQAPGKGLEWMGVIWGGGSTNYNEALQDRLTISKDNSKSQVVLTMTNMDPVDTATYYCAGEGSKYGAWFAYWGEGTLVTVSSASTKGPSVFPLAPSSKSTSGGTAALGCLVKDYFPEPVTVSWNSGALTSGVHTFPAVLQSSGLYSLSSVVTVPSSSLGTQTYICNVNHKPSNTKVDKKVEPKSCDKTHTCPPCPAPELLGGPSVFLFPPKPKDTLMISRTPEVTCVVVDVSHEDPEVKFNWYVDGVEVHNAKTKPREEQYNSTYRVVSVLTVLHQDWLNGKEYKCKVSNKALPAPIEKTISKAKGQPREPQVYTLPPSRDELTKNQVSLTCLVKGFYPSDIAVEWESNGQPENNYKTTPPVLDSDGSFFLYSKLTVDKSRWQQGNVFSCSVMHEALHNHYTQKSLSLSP
light: B1 light with V109L, E112K
Turning to B10, the Kd came to 2.82 nM.

B11: H27/L0 (antibody, human IgG1, kappa, V domains shown)
VH: B9 VH with E61S
VL: B9 VL
B11: the Kd is 3.03 nM.

B12: H33/L0 (antibody, human IgG1, kappa)
heavy: not shown
light: B1 light with V109L, E112K
Regarding B12, the Kd is 3.04 nM.

B13: H30/L0 (antibody, human IgG1, kappa)
heavy: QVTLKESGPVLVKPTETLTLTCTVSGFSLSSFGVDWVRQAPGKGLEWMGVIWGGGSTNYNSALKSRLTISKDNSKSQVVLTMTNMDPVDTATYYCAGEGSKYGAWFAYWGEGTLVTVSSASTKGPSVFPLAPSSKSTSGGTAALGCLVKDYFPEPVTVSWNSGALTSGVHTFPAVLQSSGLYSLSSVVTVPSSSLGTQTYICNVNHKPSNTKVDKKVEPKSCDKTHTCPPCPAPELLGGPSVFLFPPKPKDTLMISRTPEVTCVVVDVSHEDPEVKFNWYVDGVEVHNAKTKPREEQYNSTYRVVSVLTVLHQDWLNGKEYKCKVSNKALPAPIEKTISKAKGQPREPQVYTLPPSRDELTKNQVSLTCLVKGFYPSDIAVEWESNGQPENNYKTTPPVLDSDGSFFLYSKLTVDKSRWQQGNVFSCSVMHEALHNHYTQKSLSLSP
light: B1 light with V109L, E112K
As for B13, the Kd turned out to be 2.7 nM.

B14: H26/L13 (antibody, human IgG1, kappa)
heavy: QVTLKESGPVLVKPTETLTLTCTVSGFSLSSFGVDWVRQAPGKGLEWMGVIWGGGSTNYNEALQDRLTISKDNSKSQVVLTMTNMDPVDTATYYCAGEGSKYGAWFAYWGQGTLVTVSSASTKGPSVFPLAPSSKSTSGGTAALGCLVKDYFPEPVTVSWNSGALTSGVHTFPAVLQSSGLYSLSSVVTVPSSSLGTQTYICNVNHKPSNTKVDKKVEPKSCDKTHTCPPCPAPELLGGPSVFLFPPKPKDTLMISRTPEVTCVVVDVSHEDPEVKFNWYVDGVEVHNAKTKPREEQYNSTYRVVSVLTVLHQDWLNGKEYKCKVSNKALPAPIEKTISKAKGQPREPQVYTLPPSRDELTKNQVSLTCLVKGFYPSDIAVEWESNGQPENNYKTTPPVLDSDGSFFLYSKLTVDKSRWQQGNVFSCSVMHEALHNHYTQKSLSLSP
light: B1 light with R24Q, K47Q
On to B14, for which the Kd was found to be 2.5 nM.

B15: H31/L12 (antibody, human IgG1, kappa)
heavy: not shown
light: B1 light with R24Q, K47E
With B15, the Kd was found to be 3.14 nM.

B16: H33/L11 (antibody, human IgG1, kappa)
heavy: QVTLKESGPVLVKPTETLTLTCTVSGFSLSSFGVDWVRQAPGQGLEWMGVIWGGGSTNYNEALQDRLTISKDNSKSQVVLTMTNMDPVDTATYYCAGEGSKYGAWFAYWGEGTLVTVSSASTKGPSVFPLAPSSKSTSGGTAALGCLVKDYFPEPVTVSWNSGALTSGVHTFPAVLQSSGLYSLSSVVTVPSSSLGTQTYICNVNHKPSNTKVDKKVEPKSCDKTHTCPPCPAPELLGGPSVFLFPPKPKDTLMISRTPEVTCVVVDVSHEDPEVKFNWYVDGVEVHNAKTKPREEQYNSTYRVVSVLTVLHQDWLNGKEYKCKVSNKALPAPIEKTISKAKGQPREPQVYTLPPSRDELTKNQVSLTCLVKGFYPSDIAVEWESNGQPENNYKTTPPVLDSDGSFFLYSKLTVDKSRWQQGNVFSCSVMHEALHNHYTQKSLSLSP
light: B1 light with R24Q
Regarding B16, the Kd was 3.06 nM.

B17: H26/L12 (antibody, human IgG1, kappa)
heavy: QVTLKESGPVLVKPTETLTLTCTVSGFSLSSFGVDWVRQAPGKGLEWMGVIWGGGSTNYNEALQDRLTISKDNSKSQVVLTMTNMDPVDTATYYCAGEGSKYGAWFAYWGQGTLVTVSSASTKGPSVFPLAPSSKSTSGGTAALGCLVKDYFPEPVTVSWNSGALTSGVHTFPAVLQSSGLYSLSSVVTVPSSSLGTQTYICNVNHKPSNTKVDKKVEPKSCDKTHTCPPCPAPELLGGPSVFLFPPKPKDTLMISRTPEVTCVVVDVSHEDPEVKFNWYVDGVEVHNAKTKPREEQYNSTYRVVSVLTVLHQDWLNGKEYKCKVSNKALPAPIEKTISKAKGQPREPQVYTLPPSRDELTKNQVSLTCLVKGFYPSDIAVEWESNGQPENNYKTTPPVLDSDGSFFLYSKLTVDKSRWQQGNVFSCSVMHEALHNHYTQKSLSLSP
light: B1 light with R24Q, K47E
With B17, the Kd amounted to 2.79 nM.

B18: H26/L11 (antibody, human IgG1, kappa)
heavy: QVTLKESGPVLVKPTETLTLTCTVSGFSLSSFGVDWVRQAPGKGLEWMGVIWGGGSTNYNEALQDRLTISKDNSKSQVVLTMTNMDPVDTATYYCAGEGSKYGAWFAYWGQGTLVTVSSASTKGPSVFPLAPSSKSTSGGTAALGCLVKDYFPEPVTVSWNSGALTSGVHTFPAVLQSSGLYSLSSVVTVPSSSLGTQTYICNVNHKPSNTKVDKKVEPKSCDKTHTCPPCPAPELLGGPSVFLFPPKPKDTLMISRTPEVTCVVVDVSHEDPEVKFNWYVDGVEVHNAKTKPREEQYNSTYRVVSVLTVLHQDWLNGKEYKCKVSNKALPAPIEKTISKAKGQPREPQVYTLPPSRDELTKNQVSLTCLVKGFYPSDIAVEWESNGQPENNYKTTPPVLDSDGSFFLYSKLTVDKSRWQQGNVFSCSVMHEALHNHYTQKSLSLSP
light: B1 light with R24Q
Turning to B18, the Kd was 2.71 nM.
